Measured values published in the nanobody polyreactivity screen of Harvey et al. (2022).

Assay: yeast display, Sf9 membrane polyspecificity reagent, FACS + sequencing; frameworks hold sequencing errors
In short: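 A synthetic nanobody library was expressed on Saccharomyces cerevisiae BJ5465 by galactose induction for 36–48 hours. The library was stained for 1 hour at 4 °C with 10% biotinylated, detergent-solubilized Sf9 membrane reagent and enriched with streptavidin microbeads before FACS. Low and high (top ~1%) gates were set on anti-HA fluorescence for expression and streptavidin fluorescence for reagent binding, and each polyreactivity label reflects the gate of origin.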

Sequence | polyreactivity (PSR sort gate)
QVQLVESGGGLVQAGGSLRLSCAACGSIFIGNAMGWYRQAPGKERELVAVISKGGGRTYYADSVKGRFTISRDNAKNTVYLKMNSLKPEDTAVYFCNTRNPESGDYWGQGTQVTVSS | high polyreactivity
QVQLVESGGGLVQAGGSLRLSCAACGSIFRRYAMGWYRQAPGKERELVASIRGGGGTYYADSVKGRFTISRDNAKNTVYLQMNSLKPEDTAVYYCAATRYLAYFRKSFYYWGQGTQVTVSS | high polyreactivity
QVQLVESGGGLVQAGGSLRLSCAACGSTFLYYAMGWYRQAPGKERELVAGISWDGTSTYYADSVKGRFTISRDNAKNSVYLQMNSLKPEDTAVYYCAAFGWSRVYHWRFEWGQGTQVTVSS | low polyreactivity
QVQLVESGGGLVQAGGSLRLSCAACGSTFYGHAMGWYRQAPGKRELVAAITWSGGSTYYADSVKGRFTISRDNAKNTVYLQMNSLKPEDTAVYYCAADRRNNNGASGTRLDYWGQGTQVTVSS | low polyreactivity
QVQLVESGGGLVQAGGSLRLSCAAPGSIFPRYAMGWYRQAPGKERELVAAISRSGGSTYYADSVKGRFTISRDNAKNTVSLQRNSLKPEDTAVYYCATDKVSHRRYDYWGQGTQVTVSS | high polyreactivity
QVQLVESGGGLVQAGGSLRLSCAASAFIFIIYAMGWYRQAPGKERELVAGIRWSGGSTYYADSVKGRFTISRDNAKNTVYLQMNSLKQEDTAVYYCNKDRGSLTLYTYDYWGQGTQVTVSS | low polyreactivity
QVQLVESGGGLVQAGGSLRLSCAASAFTFGYYAMGWYIQAPGKERELVAAISSGGNTNYADSVKGRFTISRDNAKNTVYLQMNSLKPEDTAVYYCNRRSWRYYKTYSAFNYWGQGSQVTVSS | high polyreactivity
QVQLVESGGGLVQAGGSLRLSCAASAFTFQNYAMGWYRQAPGKERELVAAIDSRGGRTYYADSVKGRFTISRDNAKNTVYLQMNSLKPEDTADDYCAVAENSRFGSVGYYYWGQGTQVTVSS | low polyreactivity
QVQLVESGGGLVQAGGSLRLSCAASAGTFNHYAMGWSRQEPGKERELVASITNGASTYYADSVKGRFTISRDNAKNTVYLQMNILKPEDTAVYYCAKRGRVGKYRYEYWGQGTLVTVSS | low polyreactivity
QVQLVESGGGLVQAGGSLRLSCAASAIIFRFYAMGWYRQAPGKERELVPAISSGGSTYYADSVKGRFTISRDNAKNTVYLQMNSLKPEDTAVYYCNARVRYKRTGRYGYWGQGTQVTVSS | high polyreactivity
QVQLVESGGGLVQAGGSLRLSCAASALTFRVYAMGWYRQAPGKERELVAAISFSGSSTFYADSVKGRFTISRDNAKNTVYLQMNSMKPEDTAVYYCAAGASEAVDVYDYWGQGTQVTVSS | low polyreactivity
QVQLVESGGGLVQAGGSLRLSCAASARTFSAYAMGWYRPAPGKERELVARITSVDSTNYADSVKGRFTISRDNAKNTVYLQMNSLKPEDTAVYYCNATFGYPFVDYDDYWGQGTQVTVSS | low polyreactivity
QVQLVESGGGLVQAGGSLRLSCAASARTFWAYAMGWYRQATGKEREWVAAITSSGTRTYYADSVKGRFTISRDNAKNTVYLKMNSLKPEDTAGYYCAAERIWLAHAYPTYVANDYWGQGTQVTVSS | high polyreactivity
QVQLVESGGGLVQAGGSLRLSCAASASIFAYNAMGWYRQAPGKERELVAAISYSGASTYYADSVKGRFTISRDYAKNTVYLQMNSLKPEDTAVYYCAATSRRRGTKGYWQVWPRFDYWGQGTQVTVSS | high polyreactivity
QVQLVESGGGLVQAGGSLRLSCAASASIFYIYAKGSYRQAPGKARELVAVIRNGGRTNYADSVKGRFTISRDNAKNTVYFQMNSLKPEDTAVYYCAARPRHVTRFDYWGQGTQVTVSS | high polyreactivity
QVQLVESGGGLVQAGGSLRLSCAASASIYPYAMGWYRQAPGKERELVAAITRSGASTYYADSVKGRFTISRDNAKNTVYLQMNSMKPEDTAVYYCAAYALRGVRYPYRVDFYYWGQGTQVTVSS | high polyreactivity
QVQLVESGGGLVQAGGSLRLSCAASASNIIGYAMGWYRQAPGKERELVAAITSGSITNYADSVKGRFTISRDTAKNTVYLQMNSLKPEDTAVYYCNADVNFIDDDYWGQGTQVTVSS | low polyreactivity
QVQLVESGGGLVQAGGSLRLSCAASASTFAGYVMGWYRPAPGKERELVAAISVSGGSTDYADSVKGRFTISRDNAKNTVYLQMNSLKPEDTAVYYCAAVYVRNQWWRNYYWGQGTQVTVSS | low polyreactivity
QVQLVESGGGLVQAGGSLRLSCAASASTFYLYAMGWYRQAPGKERELVAAISRGGTTYYADSVKGRFTISRDNEKNSVYLQMNSLKPEDTAVYYCNKLRRYSEYNADYGDYWGQGTQVTVSS | high polyreactivity
QVQLVESGGGLVQAGGSLRLSCAASASTIIRNAMGWYRQAPGKERELVAAISTSGGRTHYADSVKGRFTISRDNAKNTVYLQMNSLKPEDTAVYYCDTRGKGHYYYWGQGTQVTVSS | high polyreactivity
QVQLVESGGGLVQAGGSLRLSCAASDTPSSSMLMGWYRQAPGKERELVAAISGSDGTTYYADSVKVRFTISRDNAKNTVYLQMNSLKPEDTAVYYCAADDRVYSGYIKDDYWGQGTQVTVSS | low polyreactivity
QVQLVESGGGLVQAGGSLRLSCAASGAIFDSNAMGWYREAPGTERELVASIDRGGDTNYADSVKGRFTISRDNAKNTVYLQMNSLKPEDTAVYYCAAYYYKWVWIGMDYWGQGTQVTVSS | low polyreactivity

Sequence | polyreactivity (PSR sort gate)
QVQLVESGGGLVQAGGSLRLSCAASGAIFELNAMGWYRQAPGKERELVAAIRWRTGRTYYADSVKGRFTISRDNAKNTVYLQMNSLKPEDTAVYYCAAPVRSGVRYTLDYWGQGTQVTVSS | high polyreactivity
QVQLVESGGGLVQAGGSLRLSCAASGAIFFSYAMGWYRQAPGKERELVAAIRTNGGTTYYADSVKGRFTISRDNAKNTVYLQMNSLKPEDTAVYYCAALPGGYYDRGEYDYWGQGTQVTVSS | low polyreactivity
QVQLVESGGGLVQAGGSLRLSCAASGAMGWYRQAPGKERELVAAITQSGGSTRYADSVKGRFTISRDNAKNTVYLQMNSLKPEDTAVYYCKAEDPREWDPYYQDGFDFWGQGTQVTVSS | low polyreactivity
QVQLVESGGGLVQAGGSLRLSCAASGCIFAHNAMGWYRQAPGKERELVAASTYYADSVKGRFTISRDNAKNTVYLQMNSLKPEDTAVYYCAKRTRFSPGHDYWGQGTQVTVSS | high polyreactivity
QVQLVESGGGLVQAGGSLRLSCAASGCIFASYPMGWYRPAPGTERELVAAISRAGSTYYADSVKGRFTISRDNAKNTDYLQMNSLKPEDTAVYYCNADFNWGYNYWGQGTQVTGSS | high polyreactivity
QVQLVESGGGLVQAGGSLRLSCAASGCIFVSHAMGWYRQAPGKERELVAAITSGDNTKYADSVKGRFTISRDNAKNTVYLQMNSLKPEDTAVYYCAVTYRYQGAGYYWGQGTQVTVSS | low polyreactivity
QVQLVESGGGLVQAGGSLRLSCAASGCIGRRYAMGWYRQAPGKERELVAAITSSGGGTYYADSVKGRFTISRDNAKNTVYFQINILTPEDTAVYYCAARVYGSHFYYRTRPYDYWGQGTQVTVSS | high polyreactivity
QVQLVESGGGLVQAGGSLRLSCAASGCTFLYYMGWYRQAPGKERELVSALTFSGGSTYYADSVKGRFTISRDNAKNTVYLQMNSLKPEDTAVDDGAAGWYDWPKYLLSVYTYYLYDYWGQGSQVTVSS | low polyreactivity
QVQLVESGGGLVQAGGSLRLSCAASGDTFTSYAMGWYRQAPGKERELVAAISRRGGSTYYADSVKGRFTISRDNAKNTVYLQMNSLKPEDTAVYYCAAKSYSYTEFDYWGQGTQVTVSS | high polyreactivity
QVQLVESGGGLVQAGGSLRLSCAASGFAFGVYAMGWDRQAAGKERELVAAITRSGGSTYYADSVKGRFTISRDNAKNTVYLQMNSLKPEDTAVYYCAARARDHYGYWGQGTQVTVSS | high polyreactivity
QVQLVESGGGLVQAGGSLRLSCAASGFDGYAMGWYRQAPGKERELVAAISWSGSRTYYADSVKGRFTISRDNAKNTVYLQMNSLKPEDTAVYYCAADDVGRGSTPYDYWGQGTQVTVSW | high polyreactivity
QVQLVESGGGLVQAGGSLRLSCAASGFICDYNAMGWYRQAPGKERELVAAISGGGGSTYYADSVKGRFTISRDNAKKTVYLQMNSLKPEDTAVYYCAKRYRGGYWGQGTQVTVSS | high polyreactivity
QVQLVESGGGLVQAGGSLRLSCAASGFICGYNAMGWYRQAPGKERELVASINWSGGRTYYADSVKGRFTISRDNAKITVYLQMNSLKPEHTAVYYCNADGSRRYNYWGQGTQVTVSS | low polyreactivity
QVQLVESGGGLVQAGGSLRLSCAASGFIFAASALGWSRQAAGKEREFVAAISNSGTSTYYADSVKGRFTISRDNAKNTVYLQMNSLKPEDTAVYYCAAPWSTAYDYWGQGTQVTVSS | high polyreactivity
QVQLVESGGGLVQAGGSLRLSCAASGFIFAAYAKGWYRQAPGKERELVAAISGSGGRTYYADSVKGRFTISRDNAKYTVYLQMNSLKPEDTAVYYCGTPPGYPPGSIIWSRFGFWGQGTQVTVSS | high polyreactivity
QVQLVESGGGLVQAGGSLRLSCAASGFIFADYTMGWYRQPPGKERELVAAITRSGDSTYYADSVKGRFTISRDNAKNTVYLQMNSLKPEDTAVYYCNAVNDWYYAYYGVTSFRSYDYWGQGTQVTVSS | low polyreactivity
QVQLVESGGGLVQAGGSLRLSCAASGFIFAGYAMGWYRQAPGKERELVAAISWDGGSTYYADSVKGRFTISRDNAKNTVYLQMNSLKPEDTAVYYCARARYGKYGYWGQATQVTVSS | low polyreactivity
QVQLVESGGGLVQAGGSLRLSCAASGFIFAIYAMGWYRQAPGKERELVAAINSDGSTYYADSVKGRFTISRDNAKNTVYLQMNSLKPEDTAVYYCNAETAGHDMDYWGQGTQVTVSS | low polyreactivity
QVQLVESGGGLVQAGGSLRLSCAASGFIFAIYAMGWYRQAPGKERELVAAITSSSSTYADSVKGRFTISRDNAKNTVYLQMNSLKPEDTAVYYCAADTYSYRNSNDYWGQGTQVTVSS | low polyreactivity
QVQLVESGGGLVQAGGSLRLSCAASGFIFANNAMGWYRQAPGKEREWVAAITSRGGGTYYADSVKGRFTISRDNAKNTVYLQMNCLKPEDTAVYYCAVRTYRFRHWPKYDYWGQGNQVTVSS | high polyreactivity
QVQLVESGGGLVQAGGSLRLSCAASGFIFANYAMGWYRQAPGKERELVAAISSGRITYYADSVKGRFTISRDNAKNTVYLQMNSLKPEDTAVYYCAADVLYQDRSGEYHHWDGDYWGQGTQVTVSS | low polyreactivity
